Test results as given in patent US20060148057A1 (published 2006).
Residue numbers refer to the chain shown, from its start. Numbers in names are those of the source.

T1: HA-tagged ASK1-WT (UniProt Q99683 1-1374)
T1 sequence (looked up): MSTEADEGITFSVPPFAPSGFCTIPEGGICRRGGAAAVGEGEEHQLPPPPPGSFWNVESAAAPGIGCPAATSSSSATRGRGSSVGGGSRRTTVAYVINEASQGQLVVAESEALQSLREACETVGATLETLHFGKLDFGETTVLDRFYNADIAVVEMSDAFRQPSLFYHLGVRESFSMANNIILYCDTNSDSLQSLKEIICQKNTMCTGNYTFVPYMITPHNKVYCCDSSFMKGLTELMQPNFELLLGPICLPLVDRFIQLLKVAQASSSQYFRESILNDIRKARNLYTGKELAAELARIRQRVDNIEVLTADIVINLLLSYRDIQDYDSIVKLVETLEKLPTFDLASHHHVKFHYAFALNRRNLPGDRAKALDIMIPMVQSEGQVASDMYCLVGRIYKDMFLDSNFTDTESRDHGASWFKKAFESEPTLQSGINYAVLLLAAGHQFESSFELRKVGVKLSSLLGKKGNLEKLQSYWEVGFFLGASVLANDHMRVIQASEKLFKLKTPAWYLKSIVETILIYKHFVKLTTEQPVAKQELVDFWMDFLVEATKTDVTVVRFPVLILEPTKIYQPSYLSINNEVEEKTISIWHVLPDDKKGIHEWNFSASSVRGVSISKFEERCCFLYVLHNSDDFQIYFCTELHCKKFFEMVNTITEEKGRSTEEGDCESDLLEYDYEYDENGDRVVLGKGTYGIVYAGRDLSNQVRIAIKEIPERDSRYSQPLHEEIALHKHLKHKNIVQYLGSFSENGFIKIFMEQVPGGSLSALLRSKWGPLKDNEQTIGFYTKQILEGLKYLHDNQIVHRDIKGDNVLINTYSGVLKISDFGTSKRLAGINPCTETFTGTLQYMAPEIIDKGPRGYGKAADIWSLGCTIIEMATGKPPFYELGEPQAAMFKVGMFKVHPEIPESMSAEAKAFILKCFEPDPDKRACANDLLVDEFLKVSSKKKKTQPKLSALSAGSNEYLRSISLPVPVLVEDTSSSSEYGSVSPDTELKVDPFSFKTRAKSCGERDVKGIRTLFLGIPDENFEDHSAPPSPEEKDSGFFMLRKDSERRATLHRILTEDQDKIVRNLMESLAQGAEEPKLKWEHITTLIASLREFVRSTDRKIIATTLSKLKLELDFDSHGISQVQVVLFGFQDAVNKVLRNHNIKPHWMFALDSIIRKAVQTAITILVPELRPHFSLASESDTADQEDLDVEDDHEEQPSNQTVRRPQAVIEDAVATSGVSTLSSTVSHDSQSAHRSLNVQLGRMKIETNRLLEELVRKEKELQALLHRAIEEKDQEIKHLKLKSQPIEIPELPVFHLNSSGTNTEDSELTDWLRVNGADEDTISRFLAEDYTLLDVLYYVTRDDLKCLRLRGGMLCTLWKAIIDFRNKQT

B1: Flag-tagged Trx-WT (enzyme, not shown: small tags and cut ends)
chain: MVKQIESKTAFQEALDAAGDKLVVVDFSATWCGPCKMIKPFFHSLSEKYSNVIFLEVDVDDCQDVASECEVKCMPTFQFFKKGQKVGEFSGANKEKLEATINELV
B2: Flag-tagged Trx-CS (enzyme)
chain: B1 chain with C32S, C35S
notes: Expressed by transfection in BAEC; not shown: Flag tag of the Flag-vector
B3: GST-Trx-CS (enzyme, not shown: a dimerising Fc or GST; large carriers; small tags and cut ends)
chain: B1 chain with C32S, C35S
notes: also called double-mutant of C32S and C35S
B4: Flag-tagged Trx-C35S (enzyme, not shown: small tags and cut ends)
chain: B1 chain with C35S
B5: Flag-tagged Trx-C32S (enzyme, not shown: small tags and cut ends)
chain: B1 chain with C32S

Tests used:
[1] = target: T1, HA-tagged ASK1-WT; experiment: cell-based or functional assay
[2] = target: T1, HA-tagged ASK1-WT; experiment: co-immunoprecipitation from BAEC (anti-Flag IP, anti-HA blot)
[3] = target: T1, HA-tagged ASK1-WT; experiment: GST pull-down from BAEC lysate, anti-HA Western blot

Row | Binder | cell survival in ASK1-induced EC death (GFP co-transfection killing assay) [1] [%] | inhibition of ASK1-induced caspase 3 activity [1] [%] | binding result [2] | binding result [3]
1 | B1 | 92 | 50 |  | 
2 | B2 |  |  | no binding | 
3 | B3 |  |  |  | no binding
4 | B4 | 105 | 52 |  | 
5 | B5 | 80 | 48 |  | 
